Experimental data reported in the supplement of paper PMC10126150.
± gives the standard deviation of the averaged measurements.

Tested on: ATP
Test: switch fluorescence ratio, 500 uM ATP over buffer (Cy3 cluster intensity, sum of 5 cycles each) (fold (ratio)); higher = stronger signal-on switching upon ATP binding; sequences stand for … in TCGTCGGCAGCGTCAGATGTGTATAAGAGACAGTTTTTTTTTTTTTTTTTTTTTTTTT…TC
Conditions: aptamer strand: ATP DNA aptamer (quencher-CACCTGGGGGAGTATTGCGGAGGAAGG + anchor), 100 nM annealed; ATP concentration: 500 uM
Outline: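 Cy3-labelled switching-strand clusters on a modified Illumina MiSeq flow-cell were annealed to 100 nM quencher-labelled ATP aptamer, imaged in selection buffer, then imaged after 15 min with 500 uM ATP at 22 °C. Five buffer/ATP cycles ran, with NaOH stripping and re-annealing between them. The fluorescence ratio is summed target-cycle over summed buffer-cycle Cy3 intensity per cluster, averaged per switch-domain sequence. Clusters outside 100-1000 RFU were excluded.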
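Further: ATP exposure 15 min at 22 °C before imaging.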

| Sequence | switch fluorescence ratio |
| --- | --- |
| GGCAGCCGGG | 0.97 ± 0.018 |
| TTAGCGTAGG | 1.02 ± 0.0011 |
| ATACGAAGGG | 0.985 ± 0.059 |
| GGTTTACCGG | 0.987 ± 0.039 |
| TTTAAGTGGG | 1.04 ± 0.14 |
| AGATACTTGA | 1.01 ± 0.014 |
| GCGGCCCTGG | 1.008 ± 0.0064 |
| GGATTGGAGT | 0.977 ± 0.02 |
| GCCCTGAGCG | 1.011 ± 0.0066 |
| GTACACTCAT | 1.04 ± 0.031 |
| TATTAGAACT | 1.017 ± 0.0064 |
| CTGGTTTGCC | 0.974 ± 0.048 |
| CGGGGGGTGG | 1 ± 0.039 |
| ATAAGTTCCG | 0.996 ± 0.028 |
| AATTTTATAC | 1.02 ± 0.016 |
| TGTAGATTTT | 0.981 ± 0.011 |
| AAGTGAATGG | 0.9986 ± 0.0032 |
| AAAAGTTGCG | 0.9679 ± 0.0076 |
| GTATAAATGC | 0.988 ± 0.046 |
| CGGCTTTGGA | 1.056 ± 0.0019 |
| ATTATGATAT | 1.01 ± 0.015 |
| AGTGAGGCTC | 0.994 ± 0.011 |
| GTAGGTAAGC | 1.03 ± 0.057 |
| AGTTTGTTTT | 0.966 ± 0.049 |
| ATTTGTTATC | 0.98096 ± 8.4e-05 |

| Sequence | switch fluorescence ratio |
| --- | --- |
| TTGCGTTTGA | 1.008 ± 0.005 |
| TAGAGAAATA | 1.01 ± 0.064 |
| CGCTACGGTT | 1.042 ± 0.0016 |
| TCAAGCACTT | 1.25 ± 0.028 |
| GTGGTGGCGG | 1.02 ± 0.017 |
| TCAAAATGCT | 1.09 ± 0.058 |
| TGGGTCCGCG | 1.123 ± 0.0092 |
| GGGTGGCTCG | 0.997 ± 0.046 |
| ACATTCGACC | 1.11 ± 0.062 |
| TGTCCGGTGG | 1.01 ± 0.066 |
| TTAGGTGTTA | 1.03 ± 0.022 |
| AAGGCGTCGG | 0.993 ± 0.026 |
| ACACAATTTT | 1.01 ± 0.026 |
| GGCACAGATT | 1.01 ± 0.019 |
| ATCGGGAGAC | 1.27 ± 0.21 |
| TTTTTGTTGT | 1.01 ± 0.052 |
| AGTATGGTTG | 1 ± 0.02 |
| ATTTGAATGG | 0.987 ± 0.027 |
| AAAGTTATAT | 1.022 ± 0.0028 |
| CCGGGATCTT | 1.05 ± 0.013 |
| GTTGGCGGGT | 1 ± 0.017 |
| AACATTGGTC | 1.01 ± 0.017 |
| ATGATTTACT | 1.02 ± 0.02 |
| AGAGGCCAGG | 1.0973 ± 0.00031 |
| TACCACGGGT | 1.03 ± 0.018 |

| Sequence | switch fluorescence ratio |
| --- | --- |
| ACAGGACGTT | 1.11 ± 0.028 |
| TTTGCATACT | 2.75 ± 2.4 |
| CGTTCAGGGG | 1.16 ± 0.024 |
| CGGCTAAAGA | 0.976 ± 0.011 |
| ATAGACAGTG | 1.02 ± 0.13 |
| TTTAATTCGC | 1.1 ± 0.056 |
| TTTTAAAGTT | 0.968 ± 0.018 |
| GAATTTGAGT | 0.9741 ± 0.0089 |
| GATGCTCGAG | 1 ± 0.016 |
| TTTTTATATG | 0.999 ± 0.02 |
| CTTGTCTTAA | 1.02 ± 0.029 |
| CAGTAGGCGC | 1.01 ± 0.011 |
| AAATTTTACT | 1.02 ± 0.031 |
| ATGAGGGT | 1.01 ± 0.015 |
| TATCGGGGCA | 0.9622 ± 0.007 |
| TTTAAAAGGC | 1.01 ± 0.028 |
| AATCCGGGGC | 2.35 ± 1.6 |
| AGATGTGAGC | 1.03 ± 0.059 |
| TTGGCTTCAT | 0.968 ± 0.016 |
| TTCTTTGGCT | 0.977 ± 0.018 |
| ACAGTCGTCT | 0.949 ± 0.042 |
| TAATTTAATA | 1.02 ± 0.011 |
| CACCTGTTTT | 1.02 ± 0.033 |
| AGCTTATGTT | 0.985 ± 0.017 |
| AGTCTTAAGG | 0.9459 ± 0.003 |

| Sequence | switch fluorescence ratio |
| --- | --- |
| ATGCCATTAA | 0.9718 ± 0.0018 |
| AAGGGGCAGG | 1.04 ± 0.084 |
| ATAGTTCCAG | 1.002 ± 0.0087 |
| TCGAGTGCGT | 0.978 ± 0.014 |
| ACTGGTGCAT | 1.04 ± 0.019 |
| CCAAAGCCTC | 2.69 ± 0.21 |
| TGGACGTTGC | 1.03 ± 0.012 |
| CACACTGGCA | 0.996 ± 0.05 |
| AAATGGAGTA | 1.01 ± 0.007 |
| TTGGGGTGCC | 1.01 ± 0.018 |
| CCAGTTGGCA | 1 ± 0.031 |
| GGGGGTATTA | 0.97014 ± 0.00019 |
| TGCGCCGTGG | 1.02 ± 0.02 |
| CAAGGCTGGG | 1.02 ± 0.049 |
| GATCGGATGT | 0.981 ± 0.011 |
| CGTTTGTTTG | 0.988 ± 0.021 |
| TATTGGGCTT | 0.989 ± 0.018 |
| GGAAATTGTA | 0.986 ± 0.0059 |
| TTGTAGCACG | 1.07 ± 0.037 |
| GGTGAGGCTA | 1 ± 0.022 |
| TAATTGGAGA | 0.989 ± 0.014 |
| ATAGCTAGTG | 0.973 ± 0.013 |
| TATGGTGCG | 0.984 ± 0.011 |
| GTTGTGATAG | 1.01 ± 0.021 |
| GCAGCCTGTT | 0.994 ± 0.011 |

| Sequence | switch fluorescence ratio |
| --- | --- |
| CAGGGGCTGT | 0.997 ± 0.038 |
| AGATAATTTT | 0.988 ± 0.014 |
| ATATAAAAAA | 1.01 ± 0.026 |
| GCTACGACGG | 1.05 ± 0.012 |
| ACAGGCCAGC | 1.01 ± 0.022 |
| ATGTGATGGC | 0.981 ± 0.019 |
| TTAGACGGCC | 1.03 ± 0.014 |
| TTATATTTAG | 0.988 ± 0.011 |
| CAAAGAGTGG | 1.0063 ± 0.00092 |
| TGTGTTAGAG | 1.01 ± 0.019 |
| ATGGTGGGAG | 0.992 ± 0.0061 |
| GGGGGCCTAG | 0.981 ± 0.035 |
| AGCTGTTGCA | 0.971 ± 0.024 |
| GACGTGGAAG | 1.01 ± 0.024 |
| GGCTCGGGAC | 1.01 ± 0.039 |
| TGGGGTCTAG | 0.969 ± 0.01 |
| CCACTCCGGG | 1.192 ± 0.0055 |
| GTGGCATAGC | 0.981 ± 0.023 |
| TGCTGCTCGG | 0.973 ± 0.031 |
| AAAGGGGTAA | 0.982 ± 0.02 |
| TTTGGTTTTG | 0.995 ± 0.038 |
| ACGCTGCCGG | 1.1 ± 0.057 |
| GGGTTTTATG | 0.991 ± 0.033 |
| TTGGGGTCGA | 0.951 ± 0.04 |
| GGGGATGGTC | 0.962 ± 0.0016 |

| Sequence | switch fluorescence ratio |
| --- | --- |
| AACATAGGTC | 1.06 ± 0.04 |
| CCTGAGTTCG | 1.39 ± 0.21 |
| TTGCCATTGG | 0.9905 ± 0.0062 |
| AAAAGACGG | 1 ± 0.062 |
| GGGGGGGGGA | 1.01 ± 0.039 |
| TAGAATATAT | 1.78 ± 1 |
| GATAGCGGGA | 0.97 ± 0.058 |
| GTCAGTGGGG | 1.02 ± 0.052 |
| TATTTTGCGT | 1.002 ± 0.0024 |
| GGTTGGAGTG | 0.963 ± 0.017 |
| CTGGGTGTGC | 1.01 ± 0.02 |
| TTTTGCCTTA | 1.007 ± 0.0063 |
| TGAAGGGTTG | 1.01 ± 0.026 |
| TTAAAAGTTA | 1.03 ± 0.044 |
| TTATAAGTTA | 0.9814 ± 0.0043 |
| ATTTGGTTTT | 0.999 ± 0.04 |
| TATGGGCGTC | 0.999 ± 0.011 |
| ATGCGAGCGG | 0.985 ± 0.014 |
| GGAATCAGGG | 0.99 ± 0.07 |
| CGAGGCTCCG | 1.05 ± 0.026 |
| TCACTGGTTC | 1.032 ± 0.0038 |
| ATGGATGGGG | 0.998 ± 0.028 |
| CTTCGGTAAC | 2.175 ± 0.0072 |
| ATAGGCACGG | 1 ± 0.04 |
| GATGGTATGG | 1.007 ± 0.0052 |

| Sequence | switch fluorescence ratio |
| --- | --- |
| ATATAATAGG | 0.9778 ± 0.0022 |
| GATACTGAAC | 1.3 ± 0.024 |
| AGGGGGAGTA | 0.993 ± 0.027 |
| CTTATGGGGG | 1.03 ± 0.046 |
| CAGGGGGTAG | 1.01 ± 0.027 |
| CTATTTTAAG | 1.02 ± 0.051 |
| TATAGTGCGT | 0.978 ± 0.03 |
| GGTGTTAGG | 1 ± 0.016 |
| TTTTTCATAA | 0.999 ± 0.027 |
| GGGGGACAGA | 0.969 ± 0.013 |
| GAATCTAGTG | 1.019 ± 0.0039 |
| AGAGTTAGGT | 1.021 ± 0.0047 |
| ACTGAGGCCG | 1.04 ± 0.16 |
| AGGGGGGGTA | 0.997 ± 0.033 |
| TATACACGGA | 1.08 ± 0.015 |
| TCTGGGGGAA | 1.06 ± 0.15 |
| TGTGACAATG | 0.997 ± 0.012 |
| TTTTTGATGT | 0.994 ± 0.022 |
| GTCGTAGCGA | 1.24 ± 0.016 |
| GCGTTTCCTC | 1.08 ± 0.033 |
| ACTAATATAT | 0.999 ± 0.04 |
| GGTAAATTGT | 1.01 ± 0.028 |
| AATGGCAGGA | 0.998 ± 0.016 |
| GGGGAGGGAG | 1.0077 ± 0.00081 |
| GTTTGAACGC | 1.08 ± 0.018 |

| Sequence | switch fluorescence ratio |
| --- | --- |
| ATTATGACGG | 0.982 ± 0.047 |
| TTGAATTCGG | 0.9841 ± 0.0039 |
| GTTAGTCTGT | 0.9907 ± 0.0052 |
| GGTGCCACTT | 1.03 ± 0.024 |
| TTTTCGGGCG | 0.944 ± 0.017 |
| CGTAGTGGAA | 0.9919 ± 0.0061 |
| ATTCAAATGT | 1 ± 0.03 |
| TGATTTTGCC | 1.01 ± 0.018 |
| CCGGCTAGTG | 1.03 ± 0.034 |
| TCTTACGAAG | 1.27 ± 0.27 |
| TTGTGAGGGA | 0.9946 ± 0.0034 |
| ATGTACGATA | 1.14 ± 0.043 |
| TTCGTAGCAG | 1.23 ± 0.063 |
| CGGTCGGAGG | 0.974 ± 0.023 |
| TTTGATTAGG | 1.01 ± 0.04 |
| TACTAAGTTG | 1.07 ± 0.055 |
| AAATGGGTGA | 1.05 ± 0.017 |
| TGCGGCGGGT | 1.04 ± 0.012 |
| AGAGGGCGGG | 0.98 ± 0.031 |
| GCAGGCCACA | 1.11 ± 0.065 |
| GATGGCCCTT | 0.99064 ± 0.00065 |
| ACTGGGGAGC | 0.985 ± 0.0078 |
| ACCGGCACGG | 0.9679 ± 0.0037 |
| AAAAGTGGCA | 1.07 ± 0.065 |
| TTGAGGCCCA | 1.17 ± 0.22 |
